The values that follow come from US20180362585A1 (Bicycle, published 2018).

Numbered stars: 1 amine (or outer) side, 2 acyl side, 3 side chain; on linkers, the order of the positions; unused ones are H or OH. Bridge positions count the residues as written; N and C are the ends. Ends that are not written are not given here. TBMB = c1c(C[*:1])cc(C[*:3])cc1C[*:2]

T1 sequence (P03952 20-638 limits assumed): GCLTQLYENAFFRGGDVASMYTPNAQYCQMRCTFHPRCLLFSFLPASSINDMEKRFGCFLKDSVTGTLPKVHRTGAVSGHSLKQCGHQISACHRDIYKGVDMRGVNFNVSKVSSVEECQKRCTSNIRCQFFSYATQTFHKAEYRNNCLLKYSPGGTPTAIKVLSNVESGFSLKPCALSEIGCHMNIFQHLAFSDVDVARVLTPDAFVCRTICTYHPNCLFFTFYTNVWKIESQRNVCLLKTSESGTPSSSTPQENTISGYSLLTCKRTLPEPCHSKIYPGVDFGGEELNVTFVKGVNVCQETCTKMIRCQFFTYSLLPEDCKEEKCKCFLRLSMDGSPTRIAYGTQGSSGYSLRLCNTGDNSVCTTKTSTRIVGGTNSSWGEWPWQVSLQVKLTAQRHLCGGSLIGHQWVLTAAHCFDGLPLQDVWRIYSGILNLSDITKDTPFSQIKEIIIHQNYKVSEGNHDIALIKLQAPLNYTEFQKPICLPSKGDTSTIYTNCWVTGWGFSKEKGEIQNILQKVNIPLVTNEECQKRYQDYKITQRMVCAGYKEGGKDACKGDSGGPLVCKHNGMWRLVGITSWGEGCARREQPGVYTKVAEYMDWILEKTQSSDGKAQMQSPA

The test addresses T1, human plasma Kallikrein (human, UniProt P03952 20-638).
T1 construct: also called hPK; human PK
The experiment in a line: phage binding assay.
Regarding CAWPARCTHADLC (linker 1-7-13 via TBMB, on phage), the “BINDING ASSAY SIGNAL” value worked out at 79. Next, CPWPARCTHQNLC (linker 1-7-13 via TBMB (inferred), on phage): 69. Next, CAWPARCTHTHLC (linker 1-7-13 via TBMB, on phage): 66. On to CRWPARCTHTDLC (linker 1-7-13 via TBMB (inferred), on phage), for which the “BINDING ASSAY SIGNAL” value turned out to be 59.

CLWPARCTHADLC (linker 1-7-13 via TBMB, on phage): the “BINDING ASSAY SIGNAL” value was found to be 74. Consider CAWPARCTHTDLC (linker 1-7-13 via TBMB, on phage), for which the “BINDING ASSAY SIGNAL” value amounted to 92.

Consider CQWPARCTHSDLC (linker 1-7-13 via TBMB (inferred), on phage), for which the “BINDING ASSAY SIGNAL” value is 74. In the case of CHWPARCMHQDLC (linker 1-7-13 via TBMB, on phage) it was 71. Take CAWPARCTHYDLC (linker 1-7-13 via TBMB, on phage): the “BINDING ASSAY SIGNAL” value stood at 70. As for CPWPARCTHTDLC (linker 1-7-13 via TBMB (inferred), on phage), the “BINDING ASSAY SIGNAL” value worked out at 70.

As to CEWPARCLHTDLC (linker 1-7-13 via TBMB, on phage), the “BINDING ASSAY SIGNAL” value amounted to 60. In the case of CAWPARCTHVDLC (linker 1-7-13 via TBMB, on phage), the “BINDING ASSAY SIGNAL” value was 82.

Turning to CPWPARCLHTDLC (linker 1-7-13 via TBMB (inferred), on phage), the “BINDING ASSAY SIGNAL” value came out at 58. With CLWPARCTHQDLC (linker 1-7-13 via TBMB, on phage), the “BINDING ASSAY SIGNAL” value came out at 90. In the case of CAWPARCTHTDFC (linker 1-7-13 via TBMB, on phage) it was 80; in that of CNWPARCTHQDLC (linker 1-7-13 via TBMB (inferred), on phage), 116. For the molecule CHWPARCTHQELC (linker 1-7-13 via TBMB, on phage), the “BINDING ASSAY SIGNAL” value was 85. Next, CPWPARCTHQDLC (linker 1-7-13 via TBMB (inferred), on phage): 107; CRWPARCTHQDLC (linker 1-7-13 via TBMB (inferred), on phage): 73. Next, CMWPARCMHQDLC (linker 1-7-13 via TBMB (inferred), on phage): 79.

On to CHWPARCTHQDLC (linker 1-7-13 via TBMB, on phage), for which the “BINDING ASSAY SIGNAL” value was 110.
